Test results reported in article PMC10786891, “Massively parallel profiling of RNA-targeting CRISPR-Cas13d”.
Numbering of substitutions follows the chain as printed. In names and notes the source's numbering stands.

T1: EsCas13d, nuclease-dead (Eubacterium siraeum, UniProt B0MS50, R295A;H300A;R849A;H854A)
T1 sequence: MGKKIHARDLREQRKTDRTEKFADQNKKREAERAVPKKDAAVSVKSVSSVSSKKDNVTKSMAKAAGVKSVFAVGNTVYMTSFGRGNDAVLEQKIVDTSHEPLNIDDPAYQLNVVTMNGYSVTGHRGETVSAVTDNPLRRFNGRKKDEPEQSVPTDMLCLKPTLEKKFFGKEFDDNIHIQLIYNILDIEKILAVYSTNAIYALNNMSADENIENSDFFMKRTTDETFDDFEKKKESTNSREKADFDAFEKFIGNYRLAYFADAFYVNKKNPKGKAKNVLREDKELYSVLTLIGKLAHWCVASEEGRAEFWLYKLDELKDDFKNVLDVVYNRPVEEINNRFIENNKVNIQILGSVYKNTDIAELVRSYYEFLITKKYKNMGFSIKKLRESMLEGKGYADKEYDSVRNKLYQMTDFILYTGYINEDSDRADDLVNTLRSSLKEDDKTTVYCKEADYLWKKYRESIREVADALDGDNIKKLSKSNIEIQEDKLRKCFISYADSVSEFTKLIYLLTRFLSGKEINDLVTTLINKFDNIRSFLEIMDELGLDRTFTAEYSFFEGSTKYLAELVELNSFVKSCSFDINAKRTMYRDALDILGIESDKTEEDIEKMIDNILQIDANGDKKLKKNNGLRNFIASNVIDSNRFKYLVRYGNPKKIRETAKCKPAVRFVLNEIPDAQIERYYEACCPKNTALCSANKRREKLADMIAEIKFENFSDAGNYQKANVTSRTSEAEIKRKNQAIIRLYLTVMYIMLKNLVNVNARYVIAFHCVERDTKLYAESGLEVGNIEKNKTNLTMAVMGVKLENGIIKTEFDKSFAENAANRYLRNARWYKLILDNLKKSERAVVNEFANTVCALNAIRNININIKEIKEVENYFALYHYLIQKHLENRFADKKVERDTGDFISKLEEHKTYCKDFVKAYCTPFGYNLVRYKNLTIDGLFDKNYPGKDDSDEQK

B1: target 1 insC 3' of 18,insA 3' of 6 (mixed)
RNA 1: CACCCGUGCAAAAAUGCAGGGGUCUAAAACUGAGCGGAUAACCUCUCUAUGG
RNA 2: GGGAAUGGAUCCACAUCUACGAAUUCGUACCAUACGAGAGGUUAUCCAGCUCACCGAGAUCGGAAGAGCACACGU
B2: target 1 insG 3' of 22,insA 3' of 6 (mixed)
RNA 1: B1 RNA 1
RNA 2: B1 RNA 2 with C31G, A32C, U33A, A34U, C35A
B3: target 1 G17A,A18C (mixed)
RNA 1: B1 RNA 1
RNA 2: GGGAAUGGAUCCACAUCUACGAAUUCGUACCAUCAAGAGGUUAUCCGCUCACCGAGAUCGGAAGAGCACACGU
B4: target 1 insG 3' of 21,insA 3' of 4 (mixed)
RNA 1: B1 RNA 1
RNA 2: B1 RNA 2 with A32G, U33A, A34U, C35A, A48G, G49C, C50A
B5: target 1 insC 3' of 13,insA 3' of 11 (mixed)
RNA 1: B1 RNA 1
RNA 2: GGGAAUGGAUCCACAUCUACGAAUUCGUACCAUAGAGAGCGUAUAUCCGCUCACCGAGAUCGGAAGAGCACACGU
B6: target 1 G5U,A16C (mixed)
RNA 1: B1 RNA 1
RNA 2: B3 RNA 2 with C34A, A35G, A36C, G47U
B7: target 1 insU 3' of 22 (mixed)
RNA 1: B1 RNA 1
RNA 2: GGGAAUGGAUCCACAUCUACGAAUUCGUACUCAUAGAGAGGUUAUCCGCUCACCGAGAUCGGAAGAGCACACGU
B8: target 1 insC 3' of 22,insG 3' of 16 (mixed)
RNA 1: B1 RNA 1
RNA 2: GGGAAUGGAUCCACAUCUACGAAUUCGUACCCAUAGAGGAGGUUAUCCGCUCACCGAGAUCGGAAGAGCACACGU
B9: target 1 insU 3' of 15,insU 3' of 12 (mixed)
RNA 1: B1 RNA 1
RNA 2: B5 RNA 2 with A38U, G39A, C40G, A43U
B10: target 1 C2A,A9C (mixed)
RNA 1: B1 RNA 1
RNA 2: B3 RNA 2 with C34A, A35G, A43C, C50A
B11: target 1 C7G,G13A (mixed)
RNA 1: B1 RNA 1
RNA 2: B3 RNA 2 with C34A, A35G, G39A, C45G
B12: target 1 insG 3' of 18,insA 3' of 2 (mixed)
RNA 1: B1 RNA 1
RNA 2: B1 RNA 2 with C35G, A48G, G49C, C50U, U51C, C52A
B13: target 1 insU 3' of 12,insC 3' of 3 (mixed)
RNA 1: B1 RNA 1
RNA 2: GGGAAUGGAUCCACAUCUACGAAUUCGUACCAUAGAGAGGUUUAUCCGCUCCACCGAGAUCGGAAGAGCACACGU
B14: target 1 insA 3' of 12,insA 3' of 3 (mixed)
RNA 1: B1 RNA 1
RNA 2: B13 RNA 2 with U41A, C51A
B15: target 1 U19A (mixed)
RNA 1: B1 RNA 1
RNA 2: B3 RNA 2 with U33A, C34A, A35G
B16: target 1 insU 3' of 2,insG 3' of 1 (mixed)
RNA 1: B1 RNA 1
RNA 2: B5 RNA 2 with C40G, G41U, A45C, U46C, C47G, G49U, C52A, A53G
B17: target 1 C2A,C7G (mixed)
RNA 1: B1 RNA 1
RNA 2: B3 RNA 2 with C34A, A35G, C45G, C50A
B18: target 1 insA 3' of 11,insU 3' of 4 (mixed)
RNA 1: B1 RNA 1
RNA 2: B13 RNA 2 with U42A, C51U
B19: target 1 insG 3' of 16,insC 3' of 15 (mixed)
RNA 1: B1 RNA 1
RNA 2: B5 RNA 2 with A38G, G39C, C40A, U42G, A43U
B20: target 1 insU 3' of 7,insU 3' of 2 (mixed)
RNA 1: B1 RNA 1
RNA 2: B13 RNA 2 with U43A, A44U, U45C, C46U, C52U
B21: target 1 C6U,U10A (mixed)
RNA 1: B1 RNA 1
RNA 2: B3 RNA 2 with C34A, A35G, U42A, C46U
B22: target 1 insC 3' of 19,insC 3' of 11 (mixed)
RNA 1: B1 RNA 1
RNA 2: B1 RNA 2 with A34C, C35A, U43C, A44U, U45A, C46U, A48C
B23: target 1 insC 3' of 19,insU 3' of 9 (mixed)
RNA 1: B1 RNA 1
RNA 2: B1 RNA 2 with A34C, C35A, C46U, A48C
B24: target 1 insA 3' of 11,insA 3' of 10 (mixed)
RNA 1: B1 RNA 1
RNA 2: B5 RNA 2 with C40G, G41U, U42A, A43U, U44A
B25: target 1 C2U,C7A (mixed)
RNA 1: B1 RNA 1
RNA 2: B3 RNA 2 with C34A, A35G, C45A, C50U
B26: target 1 A1U,G15C (mixed)
RNA 1: B1 RNA 1
RNA 2: B3 RNA 2 with C34A, A35G, G37C, A51U
B27: target 1 insA 3' of 10,insU 3' of 5 (mixed)
RNA 1: B1 RNA 1
RNA 2: B13 RNA 2 with U43A, C49U, U50C, C51U
B28: target 1 insU 3' of 15,insU 3' of 9 (mixed)
RNA 1: B1 RNA 1
RNA 2: B1 RNA 2 with C35G, G36A, A37G, G38U, C46U, A48C
B29: target 1 U10C,A16C (mixed)
RNA 1: B1 RNA 1
RNA 2: B3 RNA 2 with C34A, A35G, A36C, U42C
B30: target 1 insC 3' of 14,insG 3' of 10 (mixed)
RNA 1: B1 RNA 1
RNA 2: B5 RNA 2 with G39C, C40G, A43U, U44G
B31: target 1 insC 3' of 22,insA 3' of 12 (mixed)
RNA 1: B1 RNA 1
RNA 2: B8 RNA 2 with G39A, A40G, G42A
B32: target 1 insG 3' of 6 (mixed)
RNA 1: B1 RNA 1
RNA 2: GGGAAUGGAUCCACAUCUACGAAUUCGUACCAUAGAGAGGUUAUCCGGCUCACCGAGAUCGGAAGAGCACACGU

Target: T1, EsCas13d, nuclease-dead
Experiment: crRNA (strand 1, pre-loaded); Mg2+; 40 mM Tris-HCl pH 7.5, 150 mM NaCl, 6 mM MgCl2, 1 mM DTT, 0.1% Tween-20, 0.2 mg/ml BSA; 25 C; 10 min per concentration, then washed
Settings: tags: His6-TwinStrep-SUMO cleaved; N-terminal SNAP kept (SNAP-Surface 488); label: 3' end held by stalled T7 RNA polymerase

Binder | Kd [nM]
B1 | 32.3 ± 1.5
B2 | 54 ± 18
B3 | 67 ± 10
B4 | 41 ± 10
B5 | 19.1 ± 2.2
B6 | 60 ± 7
B7 | 38 ± 5
B8 | 75 ± 21
B9 | 8.1 ± 0.4
B10 | 12.2 ± 0.4
B11 | 15.8 ± 1.5
B12 | 73 ± 25
B13 | 8.3 ± 0.6
B14 | 20.5 ± 1.2
B15 | 28.8 ± 1.5
B16 | 12.2 ± 0.6

Binder | Kd [nM]
B17 | 15.4 ± 0.9
B18 | 13.7 ± 0.9
B19 | 28.8 ± 2.1
B20 | 21.3 ± 1.1
B21 | 9.8 ± 0.4
B22 | 48 ± 9
B23 | ~80
B24 | 9.4 ± 0.5
B25 | 6.8 ± 0.5
B26 | 56 ± 24
B27 | 14.2 ± 1.1
B28 | 59 ± 16
B29 | 95 ± 8
B30 | 43 ± 10
B31 | 42 ± 5
B32 | 11.4 ± 0.5
